Results from PMC4058522, “Structural Basis for Phosphorylation-Dependent Recruitment of Tel2 to Hsp90 by Pih1” (Structure(London, England:1993), 2014).

Molecular target: T1, Tah1 (yeast, full-length) (yeast), P25638
T1 chain: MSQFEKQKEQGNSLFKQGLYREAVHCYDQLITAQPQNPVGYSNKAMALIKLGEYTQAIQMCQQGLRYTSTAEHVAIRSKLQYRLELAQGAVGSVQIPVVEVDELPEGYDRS
Assay: cross-linking; lysine-specific crosslinker DMS, in solution, SDS-PAGE
Conditions: remark: other sources report otherwise

- stoichiometry N: 2
B1: Tah1 (yeast, full-length), P25638 1-111 (natural protein)
chain: MSQFEKQKEQGNSLFKQGLYREAVHCYDQLITAQPQNPVGYSNKAMALIKLGEYTQAIQMCQQGLRYTSTAEHVAIRSKLQYRLELAQGAVGSVQIPVVEVDELPEGYDRS
